According to patent US12365732 (23ANDME, dated 2025):

Assays:
[1] = target: T1, recombinant hu-CD96 (M1-M503-polyHis) (human, UniProt P40200 22-519); experiment: ELISA, blocks hu-CD96-his binding to coated CD155-hFc
T1 construct: also called hu-CD96-his
T1 sequence: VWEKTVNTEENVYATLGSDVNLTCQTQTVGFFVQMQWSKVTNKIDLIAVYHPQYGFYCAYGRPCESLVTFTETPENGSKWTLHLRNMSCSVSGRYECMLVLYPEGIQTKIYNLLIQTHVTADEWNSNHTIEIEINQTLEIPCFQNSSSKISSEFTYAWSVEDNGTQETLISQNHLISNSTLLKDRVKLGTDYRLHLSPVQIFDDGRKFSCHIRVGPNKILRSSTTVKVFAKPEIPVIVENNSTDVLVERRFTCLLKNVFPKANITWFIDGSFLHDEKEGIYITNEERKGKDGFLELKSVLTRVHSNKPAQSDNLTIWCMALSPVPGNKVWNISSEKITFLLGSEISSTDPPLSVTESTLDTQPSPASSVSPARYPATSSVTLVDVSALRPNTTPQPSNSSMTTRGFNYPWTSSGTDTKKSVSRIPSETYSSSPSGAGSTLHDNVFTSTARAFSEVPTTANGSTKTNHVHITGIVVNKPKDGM
Method: CD96 binding of purified hybridoma antibodies: The hu-CD96 and cy-CD96 antigen binding ELISA was performed on the purified hybridoma antibodies. Briefly, 96-well MAXISORP® flat bottom plates (Thermo Fisher Scientific, Waltham, MA; Cat #439454) were coated overnight at 4° C. with 0.5 µg/mL of hu-CD96D1 D3-hFc and cynomolgus monkey CD96D1 D3-hFc in PBS. After removing the coating solution, unspecific binding was blocked by PBS containing 1% bovine serum albumin (blocking buffer) and incubation at room temperature for one hour. Plates were then washed three times with PBS and 0.05% TWEEN®-20 (wash buffer). Serial dilution of purified antibodies in PBS containing 0.5% BSA and 0.05% Tween 20 (ELISA buffer) was added to individual wells followed by incubation at room temperature for one hour with agitation. Plates were washed three times with wash buffer, then 100 µL/well of anti-mouse IgG-HRP (Thermo Fisher Scientific, Waltham, MA; Cat #626520) in ELISA buffer was added. […] Enzymatic color development was stopped with 50 µL/well of TMB stop solution (VWR/Avantor, Radnor, PA, USA; Cat #95059-200). Plates were analyzed with a SpectraMax i3X plate reader (Molecular Devices LLC, San Jose, CA, USA) at 450 nm.
CD155 receptor blocking of purified hybridoma antibodies: Human CD155 blocking ELISA was performed on purified hybridoma antibodies following the same protocol as described for CD96 (above), except that serial dilution of purified antibodies 50 µL/well (starting at 1 µM, 1:5 dilution) in assay buffer was added into the reaction.

[2] = target: T2, hu-CD96 isoform 2 on CHO cells (human, UniProt P40200 22-585); experiment: FACS, Ab 50 nM
T2 construct: also called CHO-CD96 (isoform 2); CD96-CHOs
T2 sequence: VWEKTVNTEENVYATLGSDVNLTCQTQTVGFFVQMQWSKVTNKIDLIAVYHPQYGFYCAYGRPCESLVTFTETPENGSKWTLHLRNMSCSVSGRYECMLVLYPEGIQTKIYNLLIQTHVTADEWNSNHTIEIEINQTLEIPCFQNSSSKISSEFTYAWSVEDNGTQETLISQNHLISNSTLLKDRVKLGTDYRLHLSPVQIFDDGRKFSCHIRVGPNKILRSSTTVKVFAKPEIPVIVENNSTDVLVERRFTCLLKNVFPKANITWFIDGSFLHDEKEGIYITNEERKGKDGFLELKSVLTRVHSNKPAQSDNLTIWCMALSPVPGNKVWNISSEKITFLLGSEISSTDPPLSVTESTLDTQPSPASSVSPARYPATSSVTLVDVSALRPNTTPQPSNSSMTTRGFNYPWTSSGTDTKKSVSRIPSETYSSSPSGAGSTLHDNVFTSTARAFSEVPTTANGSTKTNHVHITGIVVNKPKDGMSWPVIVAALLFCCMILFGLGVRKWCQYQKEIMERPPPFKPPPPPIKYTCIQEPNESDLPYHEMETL
Method: Isoform 1 of hu-CD96 (Origene, catalog #RC213845) was transiently expressed in HEK293T cells following standard lipofectamine or Fugene transfection protocol. […] Cells were washed, and binding was detected by incubation with anti-mouse IgG-FITC (Biolegend, catalog #406001) for 20 minutes at 4° C. Cell binding was analyzed by flow cytometry with a CytoFLEX (Beckman Coulter). Binding curves were calculated as a percentage of cells positive for bound antibody.
Isoform 2 of hu-CD96 (DNA construct: Origene, catalog #RC221005) was expressed on a single-cell-clone-derived CHO stable cell line. Binding of the anti-CD96 antibodies to the CHO cells were determined as described above with isoform 1 of hu-CD96.

B1: 10G1 (clone 10G1.3G8), purified hybridoma antibody (antibody, V domains shown)
VH: QIQLVQSGPELKKPGETVKISCKASGYPFTTYGMSWVKQAPGKGLKWMGWINTDSGVPTYADDFKGRFAFSLETSANTAYLQINSLKNEDAATYFCARNIYYGWGNFDYWGQGTILTVSS
VL: DILMTQSPTTLSVTPGETVSLSCRASQDIYRNLHWYQQKSQGTPRLLIKHASDSISGIPSRFTGSGSGTDFTLSINSVKPEDEGIYYCLQGYSMPYTFGGGTKLEIK
notes: murine hybridoma IgG
Q: Which IC50 [1] does the source give for B1 here?
A: Its IC50 is 2.59 nM.

Q: What about the “% positive” value [2] of the same binder?
A: Its value is 39.8%.

B2: 9H4, purified hybridoma antibody (antibody, V domains shown)
VH: EVQLLETGGGLVKSGGSLKLSCAASGFTFSDYYMYWVRQTPEKRLEWVAAISDDGTYTYYPDSVKGRFTISRDNANNYLYLQMSSLKSEDTAIYYCAKAGSYDYFDVWGAGTTVTVSS
VL: DIVLTQSPASLAVSLGQRAIISCKASQSVTFADTGLMHWYQQKPGQQPKLLIYRASNLEVGVPTRFSGSGSGTDFTLNIHPVEEEDVATYYCQQSREYPWTFGGGTKLEIK
notes: murine hybridoma IgG
Q: Which results are given for B2?
A: IC50 [1]: 2.23 nM; % positive [2]: 46.2%

B3: 7E5, purified hybridoma antibody (antibody, V domains shown)
VH: QVQLKESGPGLVAPSQSLSIICTVSGFSLTNYGIHWIRQPPGKGLEWLGIIWAGGSTNYNSALMSRLTISKDNSKSQVFLKMNSLQTNDTAIYYCARVSMMGFAYWGQGTLVTVSA
VL: QAVVTQESALTTSPGETVTLTCRSSTGAVTTSNYANWVQEKPDHLFTGLIGGTNNRAPGVPARFSGSLIGDKAALTITGAQTEDEAIYFCSLWYGSHWVFGGGTKLTVL
notes: murine hybridoma IgG
Q: With B3 as the binder, how does the IC50 [1] read?
A: The IC50 was 2.15 nM.

Q: What about the “% positive” value [2] of the same binder?
A: Its value is 58.9%.

B4: mAb1.v7 IgG (humanized 12F8) (antibody, V domains shown)
VH: EVQLVQSGAEVKKPGASVKVSCKASGFTFTNNWMHWVRQAPGQGLEWIGMIHPNSGITNINEKFKNRVTMTTDTSTSTAYMELRSLRSEDTAVYYCRSDGTYEGYFDYWGQGTLVTVSS
VL: DIQLTQSPSSLSASVGDRVTITCKASQNVGTAIVWYQQKPGKAPKVLIYSASTRYTGVPSRFSGSGSGTDFTLTISSLQPEDFATYYCQQYSSSPLTFGQGTKVEIKG
notes: human IgG1 N297G
Q: For B4, which “% positive” value [2] is on record?
A: Its value is 44.1%.
